The values that follow come from patent US20180179267A1 (published 2018).

For test [1], the target named is T1, LukGH_H19.
T1 chain 1: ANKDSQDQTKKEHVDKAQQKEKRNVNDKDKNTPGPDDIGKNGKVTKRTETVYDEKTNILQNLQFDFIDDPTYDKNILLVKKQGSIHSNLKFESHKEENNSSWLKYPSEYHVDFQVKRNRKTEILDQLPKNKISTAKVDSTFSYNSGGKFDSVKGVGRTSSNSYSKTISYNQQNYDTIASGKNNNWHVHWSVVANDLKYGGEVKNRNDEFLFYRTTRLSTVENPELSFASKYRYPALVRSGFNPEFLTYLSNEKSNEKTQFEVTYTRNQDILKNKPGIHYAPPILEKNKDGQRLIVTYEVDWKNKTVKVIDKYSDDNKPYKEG
T1 chain 2: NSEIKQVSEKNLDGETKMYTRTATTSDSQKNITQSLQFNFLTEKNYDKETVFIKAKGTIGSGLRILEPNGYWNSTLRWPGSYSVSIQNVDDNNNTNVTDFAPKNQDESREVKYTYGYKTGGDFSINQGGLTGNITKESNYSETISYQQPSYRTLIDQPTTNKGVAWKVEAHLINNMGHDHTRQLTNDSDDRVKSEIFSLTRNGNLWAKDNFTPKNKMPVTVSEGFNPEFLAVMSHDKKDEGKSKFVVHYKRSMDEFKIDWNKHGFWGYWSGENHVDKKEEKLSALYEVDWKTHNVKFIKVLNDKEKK
Put plainly: ForteBio.

For test [2], the target named is T2, LukGH_MSHR1132.
T2 chain 1: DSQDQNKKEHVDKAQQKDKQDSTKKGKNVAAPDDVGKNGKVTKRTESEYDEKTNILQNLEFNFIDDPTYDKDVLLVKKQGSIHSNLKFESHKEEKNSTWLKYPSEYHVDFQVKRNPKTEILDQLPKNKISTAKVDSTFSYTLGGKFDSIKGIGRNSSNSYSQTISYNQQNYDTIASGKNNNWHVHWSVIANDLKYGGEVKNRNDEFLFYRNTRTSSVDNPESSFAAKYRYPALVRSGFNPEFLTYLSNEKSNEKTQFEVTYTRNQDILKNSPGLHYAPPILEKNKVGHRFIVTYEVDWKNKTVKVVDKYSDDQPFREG
T2 chain 2: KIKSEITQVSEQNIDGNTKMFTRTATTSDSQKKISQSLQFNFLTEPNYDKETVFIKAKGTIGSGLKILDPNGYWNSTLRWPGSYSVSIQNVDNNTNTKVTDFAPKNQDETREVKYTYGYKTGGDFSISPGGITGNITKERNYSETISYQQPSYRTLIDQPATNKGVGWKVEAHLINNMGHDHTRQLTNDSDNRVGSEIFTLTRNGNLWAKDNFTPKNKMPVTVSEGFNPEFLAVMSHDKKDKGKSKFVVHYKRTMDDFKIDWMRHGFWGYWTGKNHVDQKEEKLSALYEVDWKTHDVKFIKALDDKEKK
Put plainly: ForteBio. On the technique in general: In BLI a coated tip is dipped into the sample, and binding shifts an interference pattern.

The target in test [3] is T3, LukG_TCH1516.
T3 chain: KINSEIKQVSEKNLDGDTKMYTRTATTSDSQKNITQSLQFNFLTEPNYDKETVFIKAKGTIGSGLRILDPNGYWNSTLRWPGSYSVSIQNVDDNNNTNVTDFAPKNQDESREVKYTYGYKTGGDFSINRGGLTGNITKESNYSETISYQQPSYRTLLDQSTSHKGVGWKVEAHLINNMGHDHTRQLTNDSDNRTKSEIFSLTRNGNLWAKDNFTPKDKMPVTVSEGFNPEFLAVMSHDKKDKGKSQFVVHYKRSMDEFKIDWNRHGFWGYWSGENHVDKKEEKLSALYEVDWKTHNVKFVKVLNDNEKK
Put plainly: ForteBio.

Test [4] deals with T4, LukGH_MRSA252.
T4 chain 1: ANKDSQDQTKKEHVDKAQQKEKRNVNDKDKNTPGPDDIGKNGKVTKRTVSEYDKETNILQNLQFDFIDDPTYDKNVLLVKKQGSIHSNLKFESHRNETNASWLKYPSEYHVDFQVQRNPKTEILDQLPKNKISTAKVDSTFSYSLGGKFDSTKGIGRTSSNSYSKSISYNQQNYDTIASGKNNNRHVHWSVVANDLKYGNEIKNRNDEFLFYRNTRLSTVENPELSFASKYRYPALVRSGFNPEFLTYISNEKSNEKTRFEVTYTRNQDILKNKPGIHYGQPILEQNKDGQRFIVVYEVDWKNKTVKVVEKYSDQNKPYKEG
T4 chain 2: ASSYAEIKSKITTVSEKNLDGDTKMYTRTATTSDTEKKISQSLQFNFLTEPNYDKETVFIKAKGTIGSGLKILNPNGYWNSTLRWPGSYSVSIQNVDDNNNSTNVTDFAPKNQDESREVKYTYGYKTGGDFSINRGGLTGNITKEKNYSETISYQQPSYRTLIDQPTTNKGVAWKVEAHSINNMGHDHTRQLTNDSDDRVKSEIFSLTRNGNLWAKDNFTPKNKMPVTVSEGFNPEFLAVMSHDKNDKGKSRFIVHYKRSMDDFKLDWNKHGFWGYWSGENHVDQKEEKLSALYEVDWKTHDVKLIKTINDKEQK
Put plainly: ForteBio.

Test [5] deals with T5, LukGH of S. aureus USA300 TCH1516 (UniProt Q2FFA2 28-351; P21224 30-338).
T5 chain 1: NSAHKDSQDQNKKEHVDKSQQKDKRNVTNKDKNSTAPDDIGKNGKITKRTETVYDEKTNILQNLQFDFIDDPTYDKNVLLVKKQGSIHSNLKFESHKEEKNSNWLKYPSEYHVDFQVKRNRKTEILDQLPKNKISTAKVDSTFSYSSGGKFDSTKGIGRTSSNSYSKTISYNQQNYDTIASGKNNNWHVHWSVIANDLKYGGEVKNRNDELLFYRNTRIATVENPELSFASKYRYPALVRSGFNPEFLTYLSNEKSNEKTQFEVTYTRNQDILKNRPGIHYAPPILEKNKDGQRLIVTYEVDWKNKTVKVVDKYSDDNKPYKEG
T5 chain 2: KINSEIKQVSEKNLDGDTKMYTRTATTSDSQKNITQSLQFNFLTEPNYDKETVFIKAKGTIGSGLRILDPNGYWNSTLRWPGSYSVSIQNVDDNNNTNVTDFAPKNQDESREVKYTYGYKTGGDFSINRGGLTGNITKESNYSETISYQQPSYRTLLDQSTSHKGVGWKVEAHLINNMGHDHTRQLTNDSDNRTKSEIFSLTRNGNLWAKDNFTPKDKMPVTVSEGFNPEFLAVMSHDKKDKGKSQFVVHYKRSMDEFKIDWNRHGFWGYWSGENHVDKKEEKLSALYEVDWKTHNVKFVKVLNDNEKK
Put plainly: ForteBio.

The target of test [6] is T3, LukG_TCH1516. Put plainly: MSD; Fab.
Test [7] deals with T5, LukGH of S. aureus USA300 TCH1516. Put plainly: MSD; Fab.
Test [8] concerns the target T6, Hla.
T6 chain: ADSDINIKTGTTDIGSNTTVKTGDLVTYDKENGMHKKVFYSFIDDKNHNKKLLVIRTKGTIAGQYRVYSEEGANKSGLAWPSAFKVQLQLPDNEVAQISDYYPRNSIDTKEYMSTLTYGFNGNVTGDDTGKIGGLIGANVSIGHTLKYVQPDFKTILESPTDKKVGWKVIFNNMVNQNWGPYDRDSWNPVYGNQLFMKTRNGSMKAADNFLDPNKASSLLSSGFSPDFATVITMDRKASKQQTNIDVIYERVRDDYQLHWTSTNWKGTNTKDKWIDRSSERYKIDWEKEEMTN

Test [9] has as its target T7, HlgB.
T7 chain: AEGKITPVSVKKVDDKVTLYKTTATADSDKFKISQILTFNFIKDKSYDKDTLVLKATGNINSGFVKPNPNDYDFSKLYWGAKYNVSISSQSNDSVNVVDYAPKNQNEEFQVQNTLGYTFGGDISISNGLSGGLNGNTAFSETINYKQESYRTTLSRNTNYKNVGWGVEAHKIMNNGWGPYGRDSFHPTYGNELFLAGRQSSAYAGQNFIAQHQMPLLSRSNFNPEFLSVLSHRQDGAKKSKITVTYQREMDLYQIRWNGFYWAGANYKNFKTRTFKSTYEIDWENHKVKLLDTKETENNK
Put plainly: MSD solution equilibrium; Fab.

Test [10] addresses T8, LukF.
T8 chain: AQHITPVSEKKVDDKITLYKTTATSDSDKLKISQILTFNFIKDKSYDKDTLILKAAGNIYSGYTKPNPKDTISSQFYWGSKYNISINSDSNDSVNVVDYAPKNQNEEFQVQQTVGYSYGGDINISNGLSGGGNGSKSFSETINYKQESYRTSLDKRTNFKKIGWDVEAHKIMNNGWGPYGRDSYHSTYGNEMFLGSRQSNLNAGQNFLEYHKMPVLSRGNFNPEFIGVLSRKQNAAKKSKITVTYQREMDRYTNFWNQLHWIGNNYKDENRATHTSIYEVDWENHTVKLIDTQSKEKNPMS
Put plainly: MSD solution equilibrium; Fab.

Test [11] addresses T9, LukD.
T9 chain: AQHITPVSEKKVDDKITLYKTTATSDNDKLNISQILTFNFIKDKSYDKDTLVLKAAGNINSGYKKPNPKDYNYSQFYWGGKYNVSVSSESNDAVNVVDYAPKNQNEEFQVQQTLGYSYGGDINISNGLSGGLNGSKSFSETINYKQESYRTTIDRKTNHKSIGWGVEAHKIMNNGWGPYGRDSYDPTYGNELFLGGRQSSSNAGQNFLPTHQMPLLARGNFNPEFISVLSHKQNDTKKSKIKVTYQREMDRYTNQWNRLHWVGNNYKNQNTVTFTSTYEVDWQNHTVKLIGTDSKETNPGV
Put plainly: MSD solution equilibrium; Fab.

B1: AB-30-3 (antibody, V domains shown)
VH: QVQLVQSGAEVKKPGSSVKVSCKASGGTFSSYAISWVRQAPGQGLEWMGVIEPIFGFANYAQKFQGRVTITADESTSTAYMELSSLRSEDTAVYYCARDAGCSSTSCHKDVYFDYWGQGTLVTVSS
VL: DIQMTQSPSSLSASVGDRVTITCRASQSISSYLNWYQQKPGKAPKLLIYGASSLQSGVPSRFSGSGSGTDFTLTISSLQPEDFATYYCQQAYYPPWTFGGGTKVEIKR
Take B1: the Kd (usually the free concentration of one partner at which half of the binding sites on the other are occupied at equilibrium, for simple one-to-one binding) was determined as 0.22 nM in test [1]; 0.39 nM in [2]; 15.5 nM in test [3]; 0.28 nM in test [4]; 0.24 nM in [5]; 0.046 nM in [6]. The same molecule had an equilibrium dissociation constant (Kd) in test [7] of 0.0005 nM.

B2: AB-28-11 (antibody, V domains shown)
VH: QVQLQESGPGLVKPSETLSLTCAVSGYSISSGMGWDWIRQPPGKGLEWIGSIDQRGSTYYNPSLEGRVTISVDTSKNQFSLKLSSVTAADTAVYYCARDAGHGVDMDVWGKGTTVTVSS
VL: DIQMTQSPSSVSASVGDRVTITCRASQGISRWLAWYQQKPGKAPKLLIYAASSLQSGVPSRFSGSGSGTDFTLTISSLQPEDFATYYCQQGYVFPLTFGGGTKVEIK
Regarding B2, the Kd was under 0.002 nM in test [8], 0.003 nM in [9], 0.071 nM in [10] and 1.2 nM in test [11].

B3: AB-28-8 (antibody, V domains shown)
VH: QVQLQESGPGLVKPSETLSLTCAVSGYSISSGMGWDWIRQPPGKGLEWIGSIDQRGSTYYNPPLESRVTISVDTSKNQFSLKLSSVTAADTAVYYCARDAGHGVDMDVWGKGTTVTVSS
VL: DIQMTQSPSSVSASVGDRVTITCRASQGISRWLAWYQQKPGKAPKLLIYAASSLQSGVPSRFSGSGSGTDFTLTISSLQPEDFATYYCQQGYVFPLTFGGGTKVEIK
For B3, the Kd in test [8] is under 0.002 nM; in test [9], 0.002 nM; in test [10] it was 0.046 nM; in [11], 0.78 nM.

B4: AB-28-12 (antibody, V domains shown)
VH: QVQLQESGPGLVKPSETLSLTCAVSGYSISSGMGWDWIRQPPGKGREWIGSIDQRGSTYYNPSLEGRVTISVDTSKNQFSLKLSSVTAADTAVYYCARDAGHGVDMDVWGKGTTVTVSS
VL: DIQMTQSPSSVSASVGDRVTITCRASQGISRWLAWYQQKPGKAPKLLIYAASSLQSGVPSRFSGSGSGTDFTLTISSLQPEDFATYYCQQGYVFPLTFGGGTKVEIK
On to B4, for which the Kd was under 0.002 nM in [8], under 0.002 nM in test [9], 0.063 nM in test [10] and 0.46 nM in test [11].

B5: AB-28-10 (antibody, V domains shown)
VH: QVQLQESGPGLVKPSETLSLTCAVSGYSISSGMGWGWIRQPPGKGLEWIGSIDQRGSTYYNPSLKSRVTISVDTSKNQFSLKLSSVTAADTAVYYCARDAGHAVDMDVWGKGTTVTVSS
VL: DIQMTQSPSSVSASVGDRVTITCRASQGISRWLAWYQQKPGKAPKLLIYAASSLQSGVPSRFSGSGSGTDFTLTISSLQPEDFATYYCQQGYVFPLTFGGGTKVEIK
Regarding B5, the Kd is under 0.002 nM in [8], 0.006 nM in test [9], 0.017 nM in test [10] and 0.45 nM in [11].

B6: AB-28-7 (antibody, V domains shown)
VH: QVQLQESGPGLVKPSETLSLTCAVSGYSISSGMGWDWIRQPPGKGREWIGSIDQRGSTYYNPSLEGRATISVDTSKNQFSLKLSSVTAADTAVYYCARDAGHGVDMDVWGKGTTVTVSS
VL: DIQMTQSPSSVSASVGDRVTITCRASQGISRWLAWYQQKPGKAPKLLIYAASSLQSGVPSRFSGSGSGTDFTLTISSLQPEDFATYYCQQGYVFPLTFGGGTKVEIK
As for B6, the Kd in [8] was under 0.002 nM; in test [9], under 0.002 nM; in [10] it was 0.052 nM; in test [11], 0.29 nM.
